Measurements from US12497446B2, “Tetranectin-targeting monoclonal antibodies to fight against lethal sepsis and other pathologies” (The Feinstein Institutes For Medical Research, priority 2019, dated 2025).

B1: murine TN: prokaryotes-derived (E. coli) recombinant murine tetranectin (protein)
chain: ESPTPKAKKAANAKKDLVSSKMFEELKNRMDVLAQEVALLKEKQALQTVCLKGTKVNLKCLLAFTQPKTFHEASEDCISQGGTLGTPQSELENEALFEYARHSVGNDANIWLGLNDMAAEGAWVDMTGGLLAYKNWETEITTQPDGGKAENCAALSGAANGKWFDKRCRDQLPYICQFAIV
B2: human TN: eukaryote-derived recombinant human tetranectin expressed in HEK293 kidney cells (ACROBiosystems) (protein, UniProt P05452 22-202, looked up)
Tetranectin: EPPTQKPKKIVNAKKDVVNTKMFEELKSRLDTLAQEVALLKEQQALQTVCLKGTKVHMKCFLAFTQTKTFHEASEDCISRGGTLGTPQTGSENDALYEYLRQSVGNEAEIWLGLNDMAAEGTWVDMTGARIAYKNWETEITAQPDGGKTENCAVLSGAANGKWFDKRCRDQLPYICQFGIV
B3: tetranectin (protein, UniProt P05452 22-202, looked up)
Tetranectin: B2 Tetranectin

What was measured:
[1] = system: Balb/C mice subjected to CLP sepsis; assay: Animal model of lethal sepsis (CLP), animal survival; assay type: in vivo, mouse; details: for protection against lethal sepsis: i.p., 2 h post onset
Experimental: This study was conducted in accordance with policies of the NIH Guide for the Care and Use of Laboratory Animals and approved by the IACUC of the Feinstein Institute for Medical Research, Manhasset, New York, USA. To evaluate the role of TN in lethal sepsis, Balb/C mice (male, 7-8 weeks, 20-25 g) were subjected to lethal endotoxemia or sepsis induced by cecal ligation and puncture (CLP) as previously described. Briefly, the cecum of Balb/C mice was ligated at 5.0 mm from the cecal tip, and then punctured once with a 22-gauge needle. At 30 min post CLP, all animals were given a subcutaneous dosing of imipenem/cilastatin (0.5 mg/mouse) (Primaxin, Merck & Co., Inc., West Point, Pa.), and resuscitation with normal sterile saline solution (20 ml/kg). Recombinant TN or anti-TN polyclonal or monoclonal IgGs were intraperitoneally administered into endotoxemic or septic mice at indicated doses and time points, and animal survival rates were monitored for up to two weeks. To evaluate the role of TN in lethal sepsis, a few breeding pairs of the heterozygous TN (also called “CLCE3B”)-KO mice were obtained from the Jackson Laboratory (Stock No. 027554, Bar Harbor, ME, USA), and bred to produce homozygous TN KO as well as wild-type littermates. Age- and sex-matched wild-type (WT) or TN knockout (KO) C57/B6 mice were then used to induce CLP sepsis via identical procedures, and animal survival rates were compared for more than two weeks.

[2] = system: Balb/C mice subjected to lethal endotoxemia; assay: Animal model of lethal endotoxemia (LPS), animal survival; assay type: in vivo, mouse; details: i.p., 2 h post onset
Experimental: This study was conducted in accordance with policies of the NIH Guide for the Care and Use of Laboratory Animals and approved by the IACUC of the Feinstein Institute for Medical Research, Manhasset, New York, USA. To evaluate the role of TN in lethal sepsis, Balb/C mice (male, 7-8 weeks, 20-25 g) were subjected to lethal endotoxemia or sepsis induced by cecal ligation and puncture (CLP) as previously described. Briefly, the cecum of Balb/C mice was ligated at 5.0 mm from the cecal tip, and then punctured once with a 22-gauge needle. At 30 min post CLP, all animals were given a subcutaneous dosing of imipenem/cilastatin (0.5 mg/mouse) (Primaxin, Merck & Co., Inc., West Point, Pa.), and resuscitation with normal sterile saline solution (20 ml/kg). Recombinant TN or anti-TN polyclonal or monoclonal IgGs were intraperitoneally administered into endotoxemic or septic mice at indicated doses and time points, and animal survival rates were monitored for up to two weeks. To evaluate the role of TN in lethal sepsis, a few breeding pairs of the heterozygous TN (also called “CLCE3B”)-KO mice were obtained from the Jackson Laboratory (Stock No. 027554, Bar Harbor, ME, USA), and bred to produce homozygous TN KO as well as wild-type littermates. […]

HMGB1 = molecular target: T1, HMGB1 (Rattus norvegicus, UniProt P63159); assay: OpenSPR assay of TN/HMGB1 interaction; assay type: binding; details: TN or HMGB1 conjugated to the sensor chip
T1 construct: made in house; host or cells: E. coli BL21 (DE3) pLysS
T1 sequence (P63159 1-215): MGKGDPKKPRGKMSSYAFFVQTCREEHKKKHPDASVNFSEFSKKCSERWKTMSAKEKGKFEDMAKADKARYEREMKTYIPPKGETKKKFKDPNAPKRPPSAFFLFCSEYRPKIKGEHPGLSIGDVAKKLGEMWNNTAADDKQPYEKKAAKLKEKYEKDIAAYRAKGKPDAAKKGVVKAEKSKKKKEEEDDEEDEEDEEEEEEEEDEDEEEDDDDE
From the text: The cDNA encoding for rat HMGB1 was cloned onto a pCAL-n vector, and the recombinant CBP-HMGB1 (rHMGB1) was expressed in E. coli BL21 (DE3) pLysS cells as previously described. Recombinant HMGB1 containing a ˜3 kDa calmodulin-binding peptide tag (CBP-HMGB1 fusion protein, 33 kDa) was expressed in E. coli, and purified to remove contaminating endotoxin by Triton X-114 extraction as previously described. Recombinant human TN corresponding to residue 22-202 amino acid (without the 21-amino acid leader signal sequence) with a C-terminal histidine tag were expressed in E. coli BL21 (DE3) pLysS cells and purified by histidine-affinity and Triton X-114 extraction to remove contaminating endotoxins. Recombinant TN and HMGB1 proteins were tested for LPS content by the chromogenic Limulus amebocyte lysate assay (Endochrome; Charles River), and the endotoxin content was less than 0.01 U per microgram of recombinant proteins.
We employed the Nicoya Lifesciences gold-nanoparticle-based Open Surface Plasmon Resonance (OpenSPR) technology (Kitchener, ON, Canada) to characterize protein-protein interactions following the manufacturer's instructions. […] The response units were recorded over time, and the binding affinity was estimated as the equilibrium dissociation constant KD using the Trace Drawer Kinetic Data Analysis v.1.6.1. […]

[3] = system: Murine macrophage-like RAW 264.7 cells; assay: Cellular HMGB1 and TN uptake; assay type: cell-based, mouse; details: TN at physiological concentrations, 2 h
Experimental: Highly purified recombinant HMGB1 and TN protein were labeled with either Alexa Fluor 555 or Alexa Fluor 488 using respective labeling kit (Cat. # A30007 or Cat. # A30006, Thermo Fisher Scientific) according to the manufacturer's instructions. Murine macrophage-like RAW 264.7 cells on cover slips were incubated with unlabeled or Alexa Fluor 555-labeled HMGB1 in the absence or presence of unlabeled or Alexa Fluor 488-labeled TN at 37° C. for 2 h. An endocytosis inhibitor, Dynasore (8.0 μM), or mAb8 (60 μg/ml) were added 30 min before the addition of HMGB1 or TN. Following extensive washings with 1×PBS, cells were fixed with 4% formalin for 20 min at room temperature and mounted on the slide using Vectashield Mounting Medium for Fluorescence with DAPI (Vector Laboratories, Inc., Cat. # H-1200) for nuclei staining (blue). Endocytic uptake of Alexa Fluor 555-labeled HMGB1 (red) or Alexa Fluor 488-labeled TN (green) was visualized via Carl Zeiss fluorescence microscope. To quantitate cellular uptake of HMGB1 and TN, macrophage cultures were incubated with recombinant HMGB1 and TN either individually, or in combination, at 37° C. for 2 h. Following extensive washing, cellular levels of HMGB1 and TN were measured by Western blotting analysis with reference to a house-keeping protein, β-actin.

[4] = system: murine peritoneal macrophages; assay: ASC release in macrophage cultures (Western blotting); assay type: cell-based, mouse; details: 16 h
Experimental: (§1) Primary peritoneal macrophages were isolated from young male Balb/c (7-8 wks, 20-25 g) at 3 days after intraperitoneal injection of 2 ml thioglycollate broth (4%) as previously described. Briefly, mice were sacrificed by CO2 asphyxiation, and the abdomen region was immediately cleaned with 70% ethanol before making a small excision to expose the abdominal wall, and to insert a catheter into viscera-free pocket to wash out peritoneal macrophages with sucrose solution (11.6%, 7.0 ml). […] The intracellular and extracellular levels of HMGB1, TN, or various other cytokines/chemokines were respectively determined by Western blotting analysis, and Cytokine Antibody Arrays as previous described.
(§2) The levels of TN in human or murine serum were determined by Western blotting analysis using commercial rabbit mAb against the C-terminus of human TN (Abcam) or our home-made murine mAbs (mAb8) against recombinant human TN. Similarly, the cellular and extracellular levels of TN and HMGB1 in murine macrophage and human monocyte cultures were determined by Western blotting analysis using rabbit polyclonal or monoclonal antibodies. […] The relative band intensity was quantified using the UN-SCAN-IT Gel Analysis Software Version 7.1 (Silk Scientific Inc., Orem, UT, USA).

macrophage cultures = assay: Cytokine Antibody Array of macrophage cultures; assay type: cell-based, mouse; details: even at 20 μg/ml
Experimental: (§3) Primary peritoneal macrophages were isolated from young male Balb/c (7-8 wks, 20-25 g) at 3 days after intraperitoneal injection of 2 ml thioglycollate broth (4%) as previously described. Briefly, mice were sacrificed by CO2 asphyxiation, and the abdomen region was immediately cleaned with 70% ethanol before making a small excision to expose the abdominal wall, and to insert a catheter into viscera-free pocket to wash out peritoneal macrophages with sucrose solution (11.6%, 7.0 ml). Human blood was purchased from the New York Blood Center (Long Island City, NY, USA), and human peripheral blood mononuclear cells (HuPBMCs) were isolated by density gradient centrifugation through Ficoll (Ficoll-Paque PLUS, Pharmacia, Piscataway, NJ, USA) as previously described. Murine macrophages and human monocytes (HuBPMCs) were cultured in DMEM supplemented with 1% penicillin/streptomycin and 10% FBS or 10% human serum. When reaching 70-80% confluence, adherent cells were gently washed with, and immediately cultured in, OPTI-MEM I before stimulating with crude LPS, purified SAA, HMGB1, in the absence or presence of human TN. The intracellular and extracellular levels of HMGB1, TN, or various other cytokines/chemokines were respectively determined by Western blotting analysis, and Cytokine Antibody Arrays as previous described. […]

primary human monocytes = assay: Cytokine Antibody Array of human monocyte cultures; assay type: cell-based; details: TN 10 μg/ml, 16 h
Experimental: as §3

[5] = system: Balb/C mice subjected to CLP sepsis; assay: Sepsis-induced tissue injury (lung histology, serum liver enzymes) after CLP; assay type: in vivo, mouse; details: TN supplementation, 2 and 24 h post CLP
human blood monocytes = assay: LPS- or SAA-induced HMGB1 release in human monocytes; assay type: cell-based; details: 16 h
Experimental: as §1, §2

[6] = system: murine peritoneal macrophages; assay: LPS- or SAA-induced HMGB1 release in murine macrophages; assay type: cell-based, mouse; details: 16 h
Experimental: as §1, §2

| Molecule | protection in sepsis at sub-physiological doses ([1]; 0.1 mg/kg) | protection in sepsis at super-physiological doses ([1]; 1.0 mg/kg) | protection against lethal sepsis [1] | protection against lethal endotoxemia [2] | estimated equilibrium disassociation constant (KD) between TN and HMGB1 (HMGB1) [nM] | HMGB1 cellular uptake [3] | ASC release, added individually [4] | ASC release, co-addition with HMGB1 [4] | LPS-, SAA-, or HMGB1-induced release of other cytokines and chemokines (macrophage cultures) | release of ENA-78 (CXCL5, LIX) (primary human monocytes) | release of GRO (CXCL1 or KC) (primary human monocytes) | sepsis-induced injury in the liver ([5]; ALT and AST at 28 h) | sepsis-induced injury in the lung ([5]; analysis at 28 h) | LPS- and SAA-induced HMGB1 release (human blood monocytes) | LPS- and SAA-induced HMGB1 release [6] |
| --- | --- | --- | --- | --- | --- | --- | --- | --- | --- | --- | --- | --- | --- | --- | --- |
| B1 | conferred reproducible protection | not associated with any protective effect | reproducible and dose-dependent protection | reproducible and dose-dependent protection |  |  |  |  |  |  |  |  |  |  |  |
| B2 |  |  | reproducible and dose-dependent protection | reproducible and dose-dependent protection |  |  |  |  |  |  |  |  |  |  |  |
| B3 |  |  |  |  | 1.21 to 2.88 | markedly enhanced | weakly induced | synergistic enhancement | did not inhibit | reproducibly and specifically induced the release | reproducibly and specifically induced the release | marked attenuation | marked attenuation | dose-dependently inhibited | dose-dependently inhibited |
